Molecular target: zFGF5 (human) (UniProt O76093)
Experiment: cell-based or functional assay

Chain of zFGF5 (human) (O76093 28-207): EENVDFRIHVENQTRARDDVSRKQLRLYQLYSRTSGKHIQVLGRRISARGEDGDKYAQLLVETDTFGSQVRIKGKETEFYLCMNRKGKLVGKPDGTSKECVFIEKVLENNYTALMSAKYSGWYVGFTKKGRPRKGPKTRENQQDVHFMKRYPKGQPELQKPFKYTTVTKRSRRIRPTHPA

Cell Proliferation (percent of control), BAF3/FGFR3α-IIIc cells with zFGF5, soluble receptor at 0 fold-excess (percent of control): 100 | Cell Proliferation (percent of control), BAF3/FGFR3α-IIIc cells with zFGF5, soluble receptor at 62.5 fold-excess (percent of control): 101 | Cell Proliferation (percent of control), BAF3/FGFR3α-IIIc cells with zFGF5, soluble receptor at 125 fold-excess (percent of control): 90 | Cell Proliferation (percent of control), BAF3/FGFR3α-IIIc cells with zFGF5, soluble receptor at 250 fold-excess (percent of control): 91 | Cell Proliferation (percent of control), BAF3/FGFR3α-IIIc cells with zFGF5, soluble receptor at 500 fold-excess (percent of control): 101 | Cell Proliferation (percent of control), BAF3/FGFR3α-IIIc cells with zFGF5, soluble receptor at 1000 fold-excess (percent of control): 99
Substance: FGFR2α-IIIb/Fc (from UniProt P21802 22-378) (Fc fusion)

Source: US20050043234A1
